B1: PEX5 peptide 110-125 (Peroxisomal targeting signal 1 receptor), 16-mer library wild type / PEX14 Pex14 (PEX14 PEX14, residues 16-84) (parent complex)
chain 1: ADLALSENWAQEFLAA
chain 2: TPGSENVLPREPLIATAVKFLQNSRVRQSPLATRRAFLKKKGLTDEEIDMAFQQSGTAADEPSSLGPAT
B2: MXI1 peptide 6-21 (Max-interacting protein 1), 16-mer library wild type / SIN3A PAH2 (SIN3A PAH domain, residues 295-383) (parent complex)
chain 1: MINVQRLLEAAEFLER
chain 2: SLQNNQPVEFNHAINYVNKIKNRFQGQPDIYKAFLEILHTYQKEQRNAKEAGGNYTPALTEQEVYAQVARLFKNQEDLLSEFGQFLPDA

Variants of: B1
Assay: proteomic peptide phage display deep mutational scan (ProP-PD DMS): M13 P8 16-mer library selected against immobilised GST-tagged bait for four days (rounds), NGS of the eluted pools per day and pseudo-replica; bait immobilised on MaxiSorp plates (10 µg), library pre-cleared on GST, 2 h binding at 4 °C, five washes; one round per day, days 1-4; value from days 2 and 3
chain 1 ADLALSPNWAQEFLAA [chain 1 E7P] was tested, and the screen value was 0.00244 average fractional NGS count over selection days 2 and 3 (reads of this peptide / all reads for the bait, averaged over …. chain 1 ADLALSGNWAQEFLAA [chain 1 E7G] was tested, and the screen value was 0.00129 average fractional NGS count over selection days 2 and 3 (reads of this peptide / all reads for the bait, averaged over …. For chain 1 ADLALSVNWAQEFLAA [chain 1 E7V], the screen value was 0.000676 average fractional NGS count over selection days 2 and 3 (reads of this peptide / all reads for the bait, averaged over …. chain 1 ADLALSHNWAQEFLAA [chain 1 E7H] was tested, and the screen value was 0.00742 average fractional NGS count over selection days 2 and 3 (reads of this peptide / all reads for the bait, averaged over …. chain 1 ADLALSANWAQEFLAA [chain 1 E7A] was tested, and the screen value was 0.00398 average fractional NGS count over selection days 2 and 3 (reads of this peptide / all reads for the bait, averaged over …. For chain 1 ADLALSYNWAQEFLAA [chain 1 E7Y], the screen value was 0.00176 average fractional NGS count over selection days 2 and 3 (reads of this peptide / all reads for the bait, averaged over …. For chain 1 ADLALSFNWAQEFLAA [chain 1 E7F], the screen value was 0.000467 average fractional NGS count over selection days 2 and 3 (reads of this peptide / all reads for the bait, averaged over …. chain 1 ADLALSDNWAQEFLAA [chain 1 E7D] was tested, and the screen value was 0.00312 average fractional NGS count over selection days 2 and 3 (reads of this peptide / all reads for the bait, averaged over …. With chain 1 ADLALSWNWAQEFLAA [chain 1 E7W] the screen value was 0.0042 average fractional NGS count over selection days 2 and 3 (reads of this peptide / all reads for the bait, averaged over …. For chain 1 ADLALSTNWAQEFLAA [chain 1 E7T], the screen value was 0.00188 average fractional NGS count over selection days 2 and 3 (reads of this peptide / all reads for the bait, averaged over …. In the case of chain 1 ADLALSELWAQEFLAA [chain 1 N8L], the screen value is reported as 0.000366 average fractional NGS count over selection days 2 and 3 (reads of this peptide / all reads for the bait, averaged over …. With chain 1 ADLALSEPWAQEFLAA [chain 1 N8P] the screen value was 0.000567 average fractional NGS count over selection days 2 and 3 (reads of this peptide / all reads for the bait, averaged over …. In the case of chain 1 ADLALSESWAQEFLAA [chain 1 N8S], the screen value is reported as 0.00269 average fractional NGS count over selection days 2 and 3 (reads of this peptide / all reads for the bait, averaged over …. For chain 1 ADLALSEGWAQEFLAA [chain 1 N8G], the screen value was 0.00135 average fractional NGS count over selection days 2 and 3 (reads of this peptide / all reads for the bait, averaged over …. For chain 1 ADLALSEFWAQEFLAA [chain 1 N8F], the screen value was 0.00191 average fractional NGS count over selection days 2 and 3 (reads of this peptide / all reads for the bait, averaged over …. In the case of chain 1 ADLALSEDWAQEFLAA [chain 1 N8D], the screen value is reported as 0.00107 average fractional NGS count over selection days 2 and 3 (reads of this peptide / all reads for the bait, averaged over …. In the case of chain 1 ADLALSEHWAQEFLAA [chain 1 N8H], the screen value is reported as 0.00161 average fractional NGS count over selection days 2 and 3 (reads of this peptide / all reads for the bait, averaged over …. With chain 1 ADLALSEEWAQEFLAA [chain 1 N8E] the screen value was 0.00099 average fractional NGS count over selection days 2 and 3 (reads of this peptide / all reads for the bait, averaged over …. In the case of chain 1 ADLALSEWWAQEFLAA [chain 1 N8W], the screen value is reported as 0.00165 average fractional NGS count over selection days 2 and 3 (reads of this peptide / all reads for the bait, averaged over …. chain 1 ADLALSEIWAQEFLAA [chain 1 N8I] was tested, and the screen value was 0.0016 average fractional NGS count over selection days 2 and 3 (reads of this peptide / all reads for the bait, averaged over …. With chain 1 ADFALSENWAQEFLAA [chain 1 L3F] the screen value was 0.000885 average fractional NGS count over selection days 2 and 3 (reads of this peptide / all reads for the bait, averaged over …. For chain 1 ADHALSENWAQEFLAA [chain 1 L3H], the screen value was 0.00618 average fractional NGS count over selection days 2 and 3 (reads of this peptide / all reads for the bait, averaged over …. chain 1 ADTALSENWAQEFLAA [chain 1 L3T] was tested, and the screen value was 0.000563 average fractional NGS count over selection days 2 and 3 (reads of this peptide / all reads for the bait, averaged over …. With chain 1 ADAALSENWAQEFLAA [chain 1 L3A] the screen value was 0.00097 average fractional NGS count over selection days 2 and 3 (reads of this peptide / all reads for the bait, averaged over …. chain 1 ADNALSENWAQEFLAA [chain 1 L3N] was tested, and the screen value was 0.000429 average fractional NGS count over selection days 2 and 3 (reads of this peptide / all reads for the bait, averaged over …. With chain 1 ADMALSENWAQEFLAA [chain 1 L3M] the screen value was 0.00299 average fractional NGS count over selection days 2 and 3 (reads of this peptide / all reads for the bait, averaged over …. chain 1 ADWALSENWAQEFLAA [chain 1 L3W] was tested, and the screen value was 0.000685 average fractional NGS count over selection days 2 and 3 (reads of this peptide / all reads for the bait, averaged over …. chain 1 ADQALSENWAQEFLAA [chain 1 L3Q] was tested, and the screen value was 0.00182 average fractional NGS count over selection days 2 and 3 (reads of this peptide / all reads for the bait, averaged over …. chain 1 ADPALSENWAQEFLAA [chain 1 L3P] was tested, and the screen value was 0.00046 average fractional NGS count over selection days 2 and 3 (reads of this peptide / all reads for the bait, averaged over …. With chain 1 ADIALSENWAQEFLAA [chain 1 L3I] the screen value was 0.000729 average fractional NGS count over selection days 2 and 3 (reads of this peptide / all reads for the bait, averaged over …. chain 1 ADLALSENWAQEFSAA [chain 1 L14S] was tested, and the screen value was 0.00136 average fractional NGS count over selection days 2 and 3 (reads of this peptide / all reads for the bait, averaged over …. For chain 1 ADLALSENWAQEFTAA [chain 1 L14T], the screen value was 0.00188 average fractional NGS count over selection days 2 and 3 (reads of this peptide / all reads for the bait, averaged over …. In the case of chain 1 ADLALSENWAQEFRAA [chain 1 L14R], the screen value is reported as 0.000944 average fractional NGS count over selection days 2 and 3 (reads of this peptide / all reads for the bait, averaged over …. chain 1 ADLALSENWAQEFQAA [chain 1 L14Q] was tested, and the screen value was 0.000996 average fractional NGS count over selection days 2 and 3 (reads of this peptide / all reads for the bait, averaged over …. chain 1 ADLALSENWAQEFDAA [chain 1 L14D] was tested, and the screen value was 0.000896 average fractional NGS count over selection days 2 and 3 (reads of this peptide / all reads for the bait, averaged over …. chain 1 ADLALSENWAQEFFAA [chain 1 L14F] was tested, and the screen value was 0.00346 average fractional NGS count over selection days 2 and 3 (reads of this peptide / all reads for the bait, averaged over …. In the case of chain 1 ADLALSENWAQEFLFA [chain 1 A15F], the screen value is reported as 0.000391 average fractional NGS count over selection days 2 and 3 (reads of this peptide / all reads for the bait, averaged over …. For chain 1 ADLALSENWAQEFLWA [chain 1 A15W], the screen value was 0.00189 average fractional NGS count over selection days 2 and 3 (reads of this peptide / all reads for the bait, averaged over …. With chain 1 ADLALSENWAQEFLPA [chain 1 A15P] the screen value was 0.00041 average fractional NGS count over selection days 2 and 3 (reads of this peptide / all reads for the bait, averaged over …. chain 1 ADLALSENWAQEFLLA [chain 1 A15L] was tested, and the screen value was 0.00105 average fractional NGS count over selection days 2 and 3 (reads of this peptide / all reads for the bait, averaged over …. chain 1 ADLALSENWAQEFLVA [chain 1 A15V] was tested, and the screen value was 0.000924 average fractional NGS count over selection days 2 and 3 (reads of this peptide / all reads for the bait, averaged over …. In the case of chain 1 ADLALSENWAQEFLHA [chain 1 A15H], the screen value is reported as 0.000537 average fractional NGS count over selection days 2 and 3 (reads of this peptide / all reads for the bait, averaged over …. For chain 1 ADLALSENWAQEFLMA [chain 1 A15M], the screen value was 0.000398 average fractional NGS count over selection days 2 and 3 (reads of this peptide / all reads for the bait, averaged over …. chain 1 ARLALSENWAQEFLAA [chain 1 D2R] was tested, and the screen value was 0.000895 average fractional NGS count over selection days 2 and 3 (reads of this peptide / all reads for the bait, averaged over …. With chain 1 AALALSENWAQEFLAA [chain 1 D2A] the screen value was 0.00157 average fractional NGS count over selection days 2 and 3 (reads of this peptide / all reads for the bait, averaged over …. For chain 1 ALLALSENWAQEFLAA [chain 1 D2L], the screen value was 0.000809 average fractional NGS count over selection days 2 and 3 (reads of this peptide / all reads for the bait, averaged over …. chain 1 AKLALSENWAQEFLAA [chain 1 D2K] was tested, and the screen value was 0.000496 average fractional NGS count over selection days 2 and 3 (reads of this peptide / all reads for the bait, averaged over …. For chain 1 AHLALSENWAQEFLAA [chain 1 D2H], the screen value was 0.004 average fractional NGS count over selection days 2 and 3 (reads of this peptide / all reads for the bait, averaged over …. With chain 1 APLALSENWAQEFLAA [chain 1 D2P] the screen value was 0.00139 average fractional NGS count over selection days 2 and 3 (reads of this peptide / all reads for the bait, averaged over …. With chain 1 AELALSENWAQEFLAA [chain 1 D2E] the screen value was 0.000736 average fractional NGS count over selection days 2 and 3 (reads of this peptide / all reads for the bait, averaged over …. chain 1 AWLALSENWAQEFLAA [chain 1 D2W] was tested, and the screen value was 0.000382 average fractional NGS count over selection days 2 and 3 (reads of this peptide / all reads for the bait, averaged over ….

Variants of: B2
Assay: as above
With chain 1 MIEVQRLLEAAEFLER [chain 1 N3E] the screen value was 0.000543 average fractional NGS count over selection days 2 and 3 (reads of this peptide / all reads for the bait, averaged over …. With chain 1 MINTQRLLEAAEFLER [chain 1 V4T] the screen value was 0.00342 average fractional NGS count over selection days 2 and 3 (reads of this peptide / all reads for the bait, averaged over …. With chain 1 KINVQRLLEAAEFLER [chain 1 M1K] the screen value was 0.000747 average fractional NGS count over selection days 2 and 3 (reads of this peptide / all reads for the bait, averaged over …. chain 1 MINVQRLLEAIEFLER [chain 1 A11I] was tested, and the screen value was 0.000346 average fractional NGS count over selection days 2 and 3 (reads of this peptide / all reads for the bait, averaged over …. With chain 1 MINVHRLLEAAEFLER [chain 1 Q5H] the screen value was 0.00355 average fractional NGS count over selection days 2 and 3 (reads of this peptide / all reads for the bait, averaged over ….

Reference: publication PMC12102759 (2025)
